The target of this series is T1, OmpR-N6His (Xenorhabdus nematophila YL001) (UniProt D3VF01).
T1 sequence: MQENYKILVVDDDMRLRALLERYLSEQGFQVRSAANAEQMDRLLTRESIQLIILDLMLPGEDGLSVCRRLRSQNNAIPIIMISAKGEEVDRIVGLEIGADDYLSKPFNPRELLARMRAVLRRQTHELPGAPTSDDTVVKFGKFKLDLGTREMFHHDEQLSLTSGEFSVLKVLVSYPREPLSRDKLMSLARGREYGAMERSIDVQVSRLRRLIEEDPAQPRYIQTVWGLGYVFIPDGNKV
The series is described as follows: EMSA. The note with it: EMSA: 5x buffer 250 mM Tris, 250 mM KCl, 0.5 mM DTT, 50 mM MgCl2, 25% glycerol, pH 8.0 (1x: 50 mM Tris, 50 mM KCl, 0.1 mM DTT, 10 mM MgCl2, 5% glycerol); 30 min. (A gel shift assay detects complexes by their altered migration in electrophoresis.)
Regarding “TACGGCTACGTAAATAATAAAGCATTGGTTATGTCTGTTTGTTTTTTTGTACAAGGACGAATCTCAATTTAATTTCGAAAAATTGAGGTCATTGATCTTATTAATGGGTAGGTTGTTTACGATGTCAAAATGTTGCATTTGAAAACAGACAATCTTCCATTATTTAATGAGATCACTGCGATAAGTTTAGTGGAGTGAAATA (double strand) [PleuO202]”, the binding result is on record as “no binding”. As for “CCGGCCTTTGGTAATAAATCAGGATAATTGAGTGATGTAAACGGGAAAACAAGGGGAAAAAACCAAAGCATAAGCAATGATTGCCAATACGGTTAATGGCCTTAAAATACATGTGGTTAGTTTCTATTGAATATGGGGTTTCGGTAAAAGTCATGGATATTGCGGGCATGGAGCATCTTGGGAGCTGAAAC (double strand) [PompR191]”, the entry is “no binding”; as for “TAATTCTTCCTCCAAGAGCAAAATACGATAACAAACTCCGCTATTCCATGACTTTACGTTCTTTTACATGCTCTGACGCTAGTTTGCAGCCGCAGGGTTATAGTTATCCACACTGAATCGAATAGAGCTATTCGAGAAAGCGGAGAAATTTAATGC (double strand) [PcpxR156]”, “no binding”.

In the case of “TTTGGATTGCATAAATTTTGTTAAGAAAGGAGAAAAATAAAACCCCATGATAGTCTAAATAGTAAAAAAATGAAGTAAACCTTTGCCCTATTTAATAGAGTAGAGTAATGTCACAATCGGTATTATTTTATTTGATACTGCTGAAGTAAAAACACCAGGTTAGTTAGTAATTAAAATCAAAAAAAAGTGATGAATAAACAATG (double strand) [PlrhA203]”, the binding result is “no binding”.

The record behind these values is article PMC12196045.
